{
  "source": "patent US20260184814A1",
  "about": "“BROADLY NE[…] INFLUENZA NEURAMINIDASE” (priority 2022, published 2026)",
  "key": {"[1]": {"target": "N2 A/HongKong/2671/2019 N245S (Influenza A virus (H3N2))"}, "[2]": {"target": "N2 A/Switzerland/8060/2017 N245S (Influenza A virus (H3N2))"}, "[3]": {"target": "N2 A/Tanzania/205/2010 S245N 247T (Influenza A virus (H3N2))"}},
  "data": [
    {"substance": "1G01 Fab", "values": [
      {"measurement": "Kd", "setting": "[1]", "value": 375, "unit": "nM"},
      {"measurement": "Kd", "setting": "[2]", "value": 398, "unit": "nM"},
      {"measurement": "Kd", "setting": "[3]", "value": "< 0.02", "unit": "nM"}
    ]}
  ]
}
